Patent US20040097586A1, “Anti-tumor compounds” (priority 2001, published 2004)
Peptide text beside a SMILES is read from it.

Key:
[1] = Test of polycationic polymers as procoagulant; details: commercially available polymer
Description: An alternative to aggregation inducers to form the positively charged ‘particles’ responsible for coagulation is to use polymers such as poly-Lys. […] POIY-D-Lys of different size derivatized with D-amino acids, dipeptides, tripeptides or tetrapeptides on their terminal and side chain free amino groups were prepared (FIG. 5). Their toxicity and procoagulant activities were compared, and interesting candidates were used for the preparation of prodrugs (FIG. 5). N-succinyl-[…]-Ala-L-Leu-L-Ala-L-Leu or PEG-Ala-Leu-Ala-Leu prodrugs were prepared and compared in terms of efficacy and toxicity to the prodrugs based on aggregation inducers as described above. Alternatively, tests were performed using poly-D-Arg.

[2] = type: in vitro ADME, human
Description: The stability of this prodrug in whole human blood was determined, and its activation into the DNR-D-tetrapeptide (or any other positively charged derivative) was checked after incubation in the presence of human cancer cells conditioned media. Breast (MCF-7, MDA-MB-231), colon (LS-174-T), prostate (LNCaP) and lung (COR-L23, NCl-H69) cancer cell lines were used. Metabolites were analyzed by reverse phase-high pressure liquid chromatography (RP-HPLC), and fluorescence detection was used to identify and quantify the DNR derivatives generated over time. […] This particular prodrug is suitable for the in vivo validation of the concept.

[3] = tested on: tumor-bearing mice; assay: Tissue distribution studies in tumor-bearing mice; type: in vivo; details: i.v., plasma and tissues, RP-HPLC
Description: Mice bearing the same tumor types used for efficacy studies were used. They were injected i.v. with the prodrug, and anesthetized at selected time points. Plasma and tissues (tumor, liver, kidney, spleen, heart, lung and skeletal muscle) were recovered, snap frozen in liquid nitrogen and stored at −80° C. The prodrug and its metabolites were then extracted and quantified by RP-HPLC with fluorescence detection.

[4] = tested on: OF-1 mice; assay: Toxicity/procoagulant activity after intravenous injection; type: in vivo; details: intravenous administration; dose levels as low as
Description: N-D-Ala-D-Leu-D-Ala-D-Leu-DNR was injected in the lateral tail vein of OF-1 mice at different dose levels in order to determine the minimal dose that induces acute toxicity and kills the animals in less than an hour following the injection. Animals were injected with this dose level and sacrificed befor death resulting from the injection of the conjugate occurs. Organs and tissues were collected, fixed and prepared for histopathology.

[5] = tested on: enzyme X; details: cited from earlier work

Poly-D-Lys
test as procoagulant polymer [1]: positively tested

N-mPEG350-[…]-Ala-L-Leu-L-Ala-L-Leu-D-Ala-D-Leu-D-Ala-D-Leu-DNR
metabolite formed upon incubation in cancer cells conditioned media [2]: yielded the positively-charged N-L-Leu-D-Ala-D-Leu-D-Ala-D-Leu-DNR derivative
stability in whole human blood [2]: relatively stable
tissue distribution: site of metabolite generation [3]: generation of a positively-charged procoagulant metabolite specifically within the tumor

COc1cccc2c1C(=O)c1c(O)c3c(c(O)c1C2=O)C[C@@](O)(C(C)=O)C[C@@H]3O[C@H]1C[C@H](NC(=O)[C@@H](CC(C)C)NC(=O)[C@@H](C)NC(=O)[C@@H](CC(C)C)NC(=O)[C@@H](C)N)[C@H](O)[C@H](C)O1 [N-D-Ala-D-Leu-D-Ala-D-Leu-daunorubicin, N-D-Ala-D-Leu-D-Ala-D-Leu-DNR] (HELM PEPTIDE1{[dA].[dL].[dA].[dL].[COc1cccc2c1C(=O)c1c(O)c3c(c(O)c1C2=O)C[C@@](O)(C(C)=O)C[C@@H]3O[C@H]1C[C@H](N[*:1])[C@H](O)[C@H](C)O1]}$$$$V2.0)
dose level inducing disseminated intravascular blood clotting [4]: 34.5 µmol/kg

N-succinyl-[…]-Ala-L-Leu-L-Ala-L-Leu
substrate quality for enzyme X [5]: optimal substrate

COc1cccc2c1C(=O)c1c(O)c3c(c(O)c1C2=O)C[C@@](O)(C(=O)CO)C[C@@H]3O[C@H]1C[C@H](NC(=O)[C@@H](CC(C)C)NC(=O)[C@@H](C)NC(=O)[C@@H](CC(C)C)NC(=O)[C@@H](C)N)[C@H](O)[C@H](C)O1 [N-D-Ala-D-Leu-D-Ala-D-Leu-doxorubicin] (HELM PEPTIDE1{[dA].[dL].[dA].[dL].[COc1cccc2c1C(=O)c1c(O)c3c(c(O)c1C2=O)C[C@@](O)(C(=O)CO)C[C@@H]3O[C@H]1C[C@H](N[*:1])[C@H](O)[C@H](C)O1]}$$$$V2.0; N-terminus and C-terminus assumed)
dose level inducing disseminated intravascular blood clotting [4]: 34.5 µmol/kg
